Measured values from PMC2647301.

Target: T1, Y2 I-AniI (Aspergillus nidulans (mitochondrial)?, UniProt P03880 235-488, F247Y;S345Y;F314K;L466K)
T1 sequence: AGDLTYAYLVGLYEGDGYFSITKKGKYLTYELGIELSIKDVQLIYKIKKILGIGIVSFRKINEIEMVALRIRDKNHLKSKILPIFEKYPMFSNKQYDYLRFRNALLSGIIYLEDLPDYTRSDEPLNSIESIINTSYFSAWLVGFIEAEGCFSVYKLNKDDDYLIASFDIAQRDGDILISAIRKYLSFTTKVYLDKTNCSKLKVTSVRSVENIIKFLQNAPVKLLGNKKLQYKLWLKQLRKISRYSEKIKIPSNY
Assay: X-ray crystallography

B1: Y2 co-crystal I-AniI target duplex (dsDNA)
DNA 1: GCGCGCTGAGGAGGTTTCTCTGTAAAGCGCA
DNA 2: GCGCTTTACAGAGAAACCTCCTCAGCGCGCT
Does B1 bind?
Result: binds
